Assay results taken from publication PMC3802530.

Tests used:
K11-linked di-ubiquitin [1] = target: K11-linked di-ubiquitin (UniProt P0CG48); assay: NMR titration
K11-linked di-ubiquitin [2] = target: K11-linked di-ubiquitin (UniProt P0CG48); assay: 15N T1 relaxation
[3] = target: K48-linked di-ubiquitin (K48-Ub2) (Homo sapiens) (UniProt P0CG47); conditions: cited from earlier work
monoUb (Homo sapiens) = monoUb (Homo sapiens) (UniProt P0CG47); conditions: cited from earlier work
[4] = target: K63-linked di-ubiquitin (K63-Ub2) (Homo sapiens) (UniProt P0CG47); conditions: cited from earlier work

Ub-associated domain (UBA) of Ubiquilin-1, sequence (Q9UMX0 546-586): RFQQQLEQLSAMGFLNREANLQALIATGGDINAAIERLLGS
hHR23a UBA2 UBA2, sequence (P54725 315-361): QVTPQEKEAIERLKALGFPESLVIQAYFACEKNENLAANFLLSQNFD

Row | Kd, site on the distal Ub (two independent sites) (K11-linked di-ubiquitin [1]) [µM] | stoichiometry N (UQ1-UBA:K11-Ub2) (K11-linked di-ubiquitin [1]) | stoichiometry N (UBA molecules per K11-Ub2) (K11-linked di-ubiquitin [2]) | Substance | Kd [3] [µM] | Kd (monoUb (Homo sapiens)) [µM] | Kd [4] [µM]
1 | 2.9 | 2 | 2 | Ub-associated domain (UBA) of Ubiquilin-1 (from UniProt Q9UMX0 546-586) (domain or fragment) | – | – | –
2 | – | – | – | hHR23a UBA2 UBA2 (from UniProt P54725) | 18 | 400 | > 200
